Source: patent publication US20040049009A1, “Methods for improving the antagonistic/agonistic properties of peptidic antagonists/agonists of the corticotropin-releasing factor receptor (crfr)” (priority 2000, published 2004)
Ends that are not written are not given here.

T1: rat CRF binding protein C-terminally fused with a His6 sequence (rat) (UniProt P24388)
T1 sequence: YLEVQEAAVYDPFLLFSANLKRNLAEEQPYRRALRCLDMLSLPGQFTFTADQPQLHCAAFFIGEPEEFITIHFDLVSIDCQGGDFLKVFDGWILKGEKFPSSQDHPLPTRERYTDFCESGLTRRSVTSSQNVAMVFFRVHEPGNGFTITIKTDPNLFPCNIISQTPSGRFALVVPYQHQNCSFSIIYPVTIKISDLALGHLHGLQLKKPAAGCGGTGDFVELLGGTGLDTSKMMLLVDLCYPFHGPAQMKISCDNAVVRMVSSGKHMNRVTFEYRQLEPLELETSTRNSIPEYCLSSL


Key:
[1] = target: T1, rat CRF binding protein C-terminally fused with a His6 sequence (rat); assay: SPA competition with 0.1 nM [125I-Tyr0]h/rCRF, His-tagged rCRFBP; 95% CI (45-70)
[2] = target: mouse CRF receptor, type 2β (mouse) (UniProt Q60748); assay: SPA competition with 0.05 nM [125I-Tyr0]Svg, HEK-293 membranes; 95% CI (0.72-1.1)
[3] = target: T1, rat CRF binding protein C-terminally fused with a His6 sequence (rat); assay: SPA competition with 0.1 nM [125I-Tyr0]h/rCRF, His-tagged rCRFBP; 95% CI (0.66-1.0)
[4] = target: mouse CRF receptor, type 2β (mouse) (UniProt Q60748); assay: SPA competition with 0.05 nM [125I-Tyr0]Svg, HEK-293 membranes; 95% CI (0.56-1.1)

| Binder | IC50 [1] [nM] | IC50 [2] [nM] | IC50 [3] [nM] | IC50 [4] [nM] |
| --- | --- | --- | --- | --- |
| QGPPISIDLSLELLRKMIEIEKQEKEKQQAANNRLLLDTI (ligand, ends and bridges not checked) [sauvagine] | 57 | 0.92 | – | – |
| QGPPISIDLSLELLRKMIEIARAEKEKQQAANNRLLLDTI (ends and bridges not checked) [[Ala^21,23Arg^22]Svg] | – | – | 0.84 | 0.82 |
